According to patent US20200271647A1 (SEOUL NATIONAL UNIVERSITY HOSPITAL, published 2020):

What was measured:
[1] = target: T1, human c-Met antigen (Sino Biological) (human, UniProt P08581 25-932); experiment: SPR (BIACORE T200), antibody captured on protein A CM5 chip, human c-Met 0.25 to 2 nM as analyte
T1 construct: Bought antigen used as the analyte in SPR; also called hepatocyte growth factor receptor; HGFR
Method: (§1) After combining the above variants, each combination was subjected to measurement of a binding ability (that is, affinity). Then, using BIACORE T200 (serial no. 1909913) device, BIACORE T200 Control Software V2.0.1 and BIACORE T200 Evaluation Software V3.0 (GE Healthcare, Uppsala, Sweden) analysis program, affinity of each candidate antibody to the antigen, c-Met, was determined along with a dissociation constant (KD value). After fixing the anti-cMet antibody to be analyzed on a protein ACM5 chip (GE Healthcare, Little Chalfont, UK), sensorgrams were acquired by flowing human c-Met antigen (Sino Biological, Beijing, China) at different concentrations in a range of 0.25 to 2 nM over the antibody. Based on the acquired sensorgrams, rate constants kₒₙ and koff were measured and KD value was calculated from a ratio of koff/kₒₙ. The calculated results are shown in Table 10 below, wherein 10 analyzed antibodies were listed in the order of higher affinity to lower affinity.

[2] = target: T1, human c-Met antigen (Sino Biological); experiment: SPR (BIACORE T200), antibody captured on protein A CM5 chip, human c-Met as analyte
Method: as §1

[3] = target: T1, human c-Met antigen (Sino Biological); experiment: derived from SPR KD (BIACORE T200); values fit 3.52/KD, i.e. relative to the best KD (VH5/Vk0); reference not given
Method: as §1
(§2) In order to determine a final candidate group from the above selected candidate antibodies, standards for determination were subdivided into expression level, affinity, thermal stability and biopotency, and used for comparison. Generally, considering production time and costs, the expression level among the above standards is regarded as the most important indicator. Accordingly, in first consideration of smooth antibody production, the present inventors have excluded the candidate antibodies with an expression level of less than […]. Thereafter, compared to the reference antibody (VH0/Vk0), improvement of each candidate antibody was converted into a numerical value from each of selection indexes. Then, an assay value of the candidate antibody measured from the selection index was divided by an average assay value to obtain a ratio (index 1). This index 1 was again divided by a ratio of VH0/Vk0 to obtain index 2, which in turn, is normalized (Tables 12 to 15). Further, these numerical values analyzed from four selection indexes (that is, the above indicators) were subjected to multiplying operation, and the candidate antibodies were overall compared with respect to the four selection indexes. Therefore, the finally resultant values (index 3) were listed in the order (highest first).

[4] = target: c-Met protein receptor on human umbilical vein endothelial cells (HUVEC) (human, UniProt P08581 25-1390); experiment: cell-based or functional assay
Chain of c-Met protein receptor on human umbilical vein endothelial cells (HUVEC) (P08581 25-1390): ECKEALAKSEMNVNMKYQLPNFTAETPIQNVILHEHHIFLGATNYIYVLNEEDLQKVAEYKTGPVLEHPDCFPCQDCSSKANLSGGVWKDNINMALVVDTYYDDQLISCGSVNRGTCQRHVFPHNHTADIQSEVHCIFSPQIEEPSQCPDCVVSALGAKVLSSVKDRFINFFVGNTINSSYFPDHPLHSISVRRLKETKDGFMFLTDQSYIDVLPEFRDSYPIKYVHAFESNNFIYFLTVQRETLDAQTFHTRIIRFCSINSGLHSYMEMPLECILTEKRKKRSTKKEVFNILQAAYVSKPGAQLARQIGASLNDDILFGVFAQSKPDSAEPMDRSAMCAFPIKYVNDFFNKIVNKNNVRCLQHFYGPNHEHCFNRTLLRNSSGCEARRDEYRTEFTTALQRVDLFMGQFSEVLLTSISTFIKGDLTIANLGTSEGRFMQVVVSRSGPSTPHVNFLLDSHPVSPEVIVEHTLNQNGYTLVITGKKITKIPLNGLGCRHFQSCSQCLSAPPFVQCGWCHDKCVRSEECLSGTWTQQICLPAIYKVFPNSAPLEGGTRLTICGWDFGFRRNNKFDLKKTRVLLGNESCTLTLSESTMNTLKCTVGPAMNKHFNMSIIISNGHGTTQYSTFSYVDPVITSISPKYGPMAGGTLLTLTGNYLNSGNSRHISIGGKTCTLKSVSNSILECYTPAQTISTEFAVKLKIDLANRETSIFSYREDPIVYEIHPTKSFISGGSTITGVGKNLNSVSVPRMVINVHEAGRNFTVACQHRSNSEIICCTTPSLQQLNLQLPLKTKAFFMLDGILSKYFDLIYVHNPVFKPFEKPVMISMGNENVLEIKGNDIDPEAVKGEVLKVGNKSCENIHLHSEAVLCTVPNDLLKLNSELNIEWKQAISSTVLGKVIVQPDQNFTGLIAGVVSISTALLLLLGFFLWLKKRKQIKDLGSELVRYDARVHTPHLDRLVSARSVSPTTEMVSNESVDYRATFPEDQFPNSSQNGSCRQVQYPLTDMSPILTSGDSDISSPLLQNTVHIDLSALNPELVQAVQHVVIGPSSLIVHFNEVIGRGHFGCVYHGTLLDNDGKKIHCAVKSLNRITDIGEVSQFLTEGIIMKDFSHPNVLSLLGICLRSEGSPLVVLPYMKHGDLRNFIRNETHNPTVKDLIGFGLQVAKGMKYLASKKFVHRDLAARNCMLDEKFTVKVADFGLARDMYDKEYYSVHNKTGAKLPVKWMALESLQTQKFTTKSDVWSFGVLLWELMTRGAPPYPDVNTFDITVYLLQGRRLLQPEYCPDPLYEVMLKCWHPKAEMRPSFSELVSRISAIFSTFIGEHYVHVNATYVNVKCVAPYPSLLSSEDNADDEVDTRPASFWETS

[5] = target: T1, human c-Met antigen (Sino Biological); experiment: derived from SPR KD; index 1 divided by the ratio of VH0/Vk0
Method: as §1, §2

T1 sequence (P08581 25-932 limits assumed): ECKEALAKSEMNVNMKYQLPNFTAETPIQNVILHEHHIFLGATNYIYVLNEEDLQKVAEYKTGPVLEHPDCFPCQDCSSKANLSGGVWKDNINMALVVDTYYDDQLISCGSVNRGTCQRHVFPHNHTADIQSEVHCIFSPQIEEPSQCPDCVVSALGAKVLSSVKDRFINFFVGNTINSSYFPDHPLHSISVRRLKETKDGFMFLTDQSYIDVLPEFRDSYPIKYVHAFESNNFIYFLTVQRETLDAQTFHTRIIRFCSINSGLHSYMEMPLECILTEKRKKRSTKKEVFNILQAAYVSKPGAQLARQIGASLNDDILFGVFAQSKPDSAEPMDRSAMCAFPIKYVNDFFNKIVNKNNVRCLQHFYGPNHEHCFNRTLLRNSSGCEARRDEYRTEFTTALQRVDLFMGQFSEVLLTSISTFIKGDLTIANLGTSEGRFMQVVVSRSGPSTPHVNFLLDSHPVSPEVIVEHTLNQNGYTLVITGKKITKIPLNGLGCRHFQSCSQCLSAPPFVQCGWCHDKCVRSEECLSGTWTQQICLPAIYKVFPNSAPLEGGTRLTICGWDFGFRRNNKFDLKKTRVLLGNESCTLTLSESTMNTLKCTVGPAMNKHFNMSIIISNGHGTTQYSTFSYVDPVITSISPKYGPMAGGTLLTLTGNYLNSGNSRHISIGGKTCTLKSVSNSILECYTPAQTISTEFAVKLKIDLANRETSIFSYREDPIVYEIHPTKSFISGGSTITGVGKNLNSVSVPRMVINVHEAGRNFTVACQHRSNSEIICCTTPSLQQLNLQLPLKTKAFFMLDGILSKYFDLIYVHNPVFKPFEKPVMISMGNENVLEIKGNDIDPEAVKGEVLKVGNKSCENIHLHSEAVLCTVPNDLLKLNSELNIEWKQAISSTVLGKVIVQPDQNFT

| Binder | Kd [1] [nM] | Relative KD to VH0/Vk0 [2] | Index 1 (affinity index from KD) [3] | Relative Migration (%) (HUVEC migration assay) [4] | Index 2 (affinity index normalised to VH0/Vk0) [5] |
| --- | --- | --- | --- | --- | --- |
| VH5/Vk0 (antibody, V domains shown, CDR-grafted variant of the IgG1-based anti-cMet antibody 1E4; also called anti-cMet candidate antibody VH5/Vk0) VH: QVQLVQSGAEVKKPGSSVKVSCQGSGYSFPTHWITWVRQAPGQGLEWMGTIDPTDSYNFYGPSFQGRVTITADSSTSTAYMELSSLRSEDTAVYYCARDGNYYDSRGYYYDTFDMWGQGTLVTVSS VL: DIQMTQSPSFLSASVGDRVTITCRASQGISTYLAWYQQKPGTAPKLLIYSASTLESGVPSRFSGSGSGTDFTLTISSLQPEDSATYYCQQADSFPLTFGGGTKVEIK | 0.352 | 0.68 | 1 | 128 | 1.48 |
| VH0/Vk2 (antibody, V domains shown, also called anti-cMet candidate antibody VH0/Vk2) VH: QVQLVQSGAEVKKPGESLRISCQGSGYSFPTHWITWVRQMPGKGLEWMGTIDPTDSYNFYGPSFQGHVTISADSSSSTAYLQWSSLKASDTAMYYCARDGNYYDSRGYYYDTFDMWGQGTLVTVSS VL: DIQMTQSPSSLSASVGDRVTITCRASQGISTYLAWYQQKPGKAPKLLIYSASTLESGVPSRFSGSGSGTDFTLTISSLQPEDFATYYCQQADSFPLTFGGGTKVEIK | 0.512 | 0.98 | 0.688 | 163 | 1.02 |
| VH6/Vk2 (antibody, V domains shown, CDR-grafted variant of the IgG1-based anti-cMet antibody 1E4; also called anti-cMet candidate antibody VH6/Vk2) VH: QVQLVQSGAEVKKPGSSVKVSCKASGYSFPTHWITWVRQAPGQGLEWMGTIDPTDSYNFYGPSFQGRVTITADKSTSTAYMELSSLRSEDTAVYYCARDGNYYDSRGYYYDTFDMWGQGTLVTVSS VL: DIQMTQSPSSLSASVGDRVTITCRASQGISTYLAWYQQKPGKAPKLLIYSASTLESGVPSRFSGSGSGTDFTLTISSLQPEDFATYYCQQADSFPLTFGGGTKVEIK | 0.44 | 0.85 | 0.8 | 154 | 1.18 |
| VH4/Vk0 (antibody, V domains shown, CDR-grafted variant of the IgG1-based anti-cMet antibody 1E4; also called anti-cMet candidate antibody VH4/Vk0) VH: QVQLVQSGAEVKKPGSSVKVSCQGSGYSFPTHWITWVRQAPGQGLEWMGTIDPTDSYNFYGPSFQGRVTITADSSTSTAYMELSSLRSEDTAMYYCARDGNYYDSRGYYYDTFDMWGQGTLVTVSS VL: DIQMTQSPSFLSASVGDRVTITCRASQGISTYLAWYQQKPGTAPKLLIYSASTLESGVPSRFSGSGSGTDFTLTISSLQPEDSATYYCQQADSFPLTFGGGTKVEIK | 0.395 | 0.76 | 0.891 | 122 | 1.32 |
| VH4/Vk2 (antibody, V domains shown, CDR-grafted variant of the IgG1-based anti-cMet antibody 1E4; also called anti-cMet candidate antibody VH4/Vk2) VH: QVQLVQSGAEVKKPGSSVKVSCQGSGYSFPTHWITWVRQAPGQGLEWMGTIDPTDSYNFYGPSFQGRVTITADSSTSTAYMELSSLRSEDTAMYYCARDGNYYDSRGYYYDTFDMWGQGTLVTVSS VL: DIQMTQSPSSLSASVGDRVTITCRASQGISTYLAWYQQKPGKAPKLLIYSASTLESGVPSRFSGSGSGTDFTLTISSLQPEDFATYYCQQADSFPLTFGGGTKVEIK | 0.423 | 0.81 | 0.832 | 177 | 1.23 |
| VH5/Vk2 (antibody, V domains shown, CDR-grafted variant of the IgG1-based anti-cMet antibody 1E4; also called anti-cMet candidate antibody VH5/Vk2) VH: QVQLVQSGAEVKKPGSSVKVSCQGSGYSFPTHWITWVRQAPGQGLEWMGTIDPTDSYNFYGPSFQGRVTITADSSTSTAYMELSSLRSEDTAVYYCARDGNYYDSRGYYYDTFDMWGQGTLVTVSS VL: DIQMTQSPSSLSASVGDRVTITCRASQGISTYLAWYQQKPGKAPKLLIYSASTLESGVPSRFSGSGSGTDFTLTISSLQPEDFATYYCQQADSFPLTFGGGTKVEIK | 0.42 | 0.81 | 0.838 | 176 | 1.24 |

The remaining binders from weak to strong by Kd [1], led by results:

| Kd [1] [nM] | Relative KD to VH0/Vk0 [2] | Index 1 (affinity index from KD) [3] | Relative Migration (%) (HUVEC migration assay) [4] | Index 2 (affinity index normalised to VH0/Vk0) [5] | Binder |
| --- | --- | --- | --- | --- | --- |
| 0.534 | 1.03 |  |  |  | VH2/Vk0 (antibody, V domains shown) VH: EVQLVQSGAEVKKPGESLKISCKGSGYSFPTHWITWVRQMPGKGLEWMGTIDPTDSYNFYGPSFQGQVTISADKSISTAYLQWSSLKASDTAMYYCARDGNYYDSRGYYYDTFDMWGQGTLVTVSS VL: DIQMTQSPSFLSASVGDRVTITCRASQGISTYLAWYQQKPGTAPKLLIYSASTLESGVPSRFSGSGSGTDFTLTISSLQPEDSATYYCQQADSFPLTFGGGTKVEIK |
| 0.52 | 1 | 0.677 | 150 | 1 | VH0/Vk0 (antibody, V domains shown, Derived from the IgG1-based 1E4 by a K to R change in the CH1 domain (G1m(3) allotype) and an S to T change in the light chain constant region (Km3 allotype); also called VMDO2 VH0/Vk0) VH: QVQLVQSGAEVKKPGESLRISCQGSGYSFPTHWITWVRQMPGKGLEWMGTIDPTDSYNFYGPSFQGHVTISADSSSSTAYLQWSSLKASDTAMYYCARDGNYYDSRGYYYDTFDMWGQGTLVTVSS VL: DIQMTQSPSFLSASVGDRVTITCRASQGISTYLAWYQQKPGTAPKLLIYSASTLESGVPSRFSGSGSGTDFTLTISSLQPEDSATYYCQQADSFPLTFGGGTKVEIK |
| 0.502 | 0.97 |  |  |  | VH2/Vk2 (antibody, V domains shown) VH: EVQLVQSGAEVKKPGESLKISCKGSGYSFPTHWITWVRQMPGKGLEWMGTIDPTDSYNFYGPSFQGQVTISADKSISTAYLQWSSLKASDTAMYYCARDGNYYDSRGYYYDTFDMWGQGTLVTVSS VL: DIQMTQSPSSLSASVGDRVTITCRASQGISTYLAWYQQKPGKAPKLLIYSASTLESGVPSRFSGSGSGTDFTLTISSLQPEDFATYYCQQADSFPLTFGGGTKVEIK |
| 0.414 | 0.8 | 0.85 | 152 | 1.26 | VH6/Vk0 (antibody, V domains shown, CDR-grafted variant of the IgG1-based anti-cMet antibody 1E4; also called anti-cMet candidate antibody VH6/Vk0) VH: QVQLVQSGAEVKKPGSSVKVSCKASGYSFPTHWITWVRQAPGQGLEWMGTIDPTDSYNFYGPSFQGRVTITADKSTSTAYMELSSLRSEDTAVYYCARDGNYYDSRGYYYDTFDMWGQGTLVTVSS VL: DIQMTQSPSFLSASVGDRVTITCRASQGISTYLAWYQQKPGTAPKLLIYSASTLESGVPSRFSGSGSGTDFTLTISSLQPEDSATYYCQQADSFPLTFGGGTKVEIK |
